Measured values: patent US20200199576

T1: β-catenin, P35222
T1 chain: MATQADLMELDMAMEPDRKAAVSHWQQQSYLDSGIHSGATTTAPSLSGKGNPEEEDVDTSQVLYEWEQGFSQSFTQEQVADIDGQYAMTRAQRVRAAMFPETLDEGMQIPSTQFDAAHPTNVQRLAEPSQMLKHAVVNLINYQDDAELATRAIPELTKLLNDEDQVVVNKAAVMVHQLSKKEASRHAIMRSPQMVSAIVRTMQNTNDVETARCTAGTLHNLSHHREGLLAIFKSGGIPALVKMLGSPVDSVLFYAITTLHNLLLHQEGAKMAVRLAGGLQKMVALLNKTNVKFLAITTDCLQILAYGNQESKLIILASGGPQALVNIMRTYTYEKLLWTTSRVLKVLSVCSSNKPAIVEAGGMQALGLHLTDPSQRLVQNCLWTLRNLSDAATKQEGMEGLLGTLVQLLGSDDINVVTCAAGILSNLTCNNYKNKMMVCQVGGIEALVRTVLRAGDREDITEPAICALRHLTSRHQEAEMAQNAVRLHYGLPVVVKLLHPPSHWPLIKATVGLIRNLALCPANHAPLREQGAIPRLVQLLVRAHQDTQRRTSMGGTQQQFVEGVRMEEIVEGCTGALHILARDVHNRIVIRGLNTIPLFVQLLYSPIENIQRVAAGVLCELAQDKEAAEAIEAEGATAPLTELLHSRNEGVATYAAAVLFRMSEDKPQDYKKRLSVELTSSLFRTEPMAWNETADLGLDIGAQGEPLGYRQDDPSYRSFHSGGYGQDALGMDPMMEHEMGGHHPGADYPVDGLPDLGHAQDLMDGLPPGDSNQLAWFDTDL

T2: UV excision repair protein HHR23A (RAD23A), P54725
T2 chain: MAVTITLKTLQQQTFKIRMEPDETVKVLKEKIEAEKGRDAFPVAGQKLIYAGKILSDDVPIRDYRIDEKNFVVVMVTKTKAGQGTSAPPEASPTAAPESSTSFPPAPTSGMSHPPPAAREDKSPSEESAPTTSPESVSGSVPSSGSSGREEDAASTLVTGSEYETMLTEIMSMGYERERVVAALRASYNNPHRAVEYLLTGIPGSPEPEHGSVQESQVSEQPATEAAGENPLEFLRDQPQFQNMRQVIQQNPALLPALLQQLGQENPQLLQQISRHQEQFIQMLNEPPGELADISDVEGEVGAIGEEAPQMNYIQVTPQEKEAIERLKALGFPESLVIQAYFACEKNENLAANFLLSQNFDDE

T3: CDK4, P11802
T3 chain: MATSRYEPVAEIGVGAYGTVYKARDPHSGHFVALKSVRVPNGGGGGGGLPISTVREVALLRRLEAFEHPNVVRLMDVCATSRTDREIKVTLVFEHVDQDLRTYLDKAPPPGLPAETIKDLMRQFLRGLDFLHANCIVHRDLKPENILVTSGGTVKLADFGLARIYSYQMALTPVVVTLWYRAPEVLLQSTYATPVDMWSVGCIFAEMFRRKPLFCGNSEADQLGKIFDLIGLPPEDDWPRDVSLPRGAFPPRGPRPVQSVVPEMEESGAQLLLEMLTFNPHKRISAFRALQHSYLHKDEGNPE

T4: FAS-associated factor UbxD8, Q96CS3
T4 chain: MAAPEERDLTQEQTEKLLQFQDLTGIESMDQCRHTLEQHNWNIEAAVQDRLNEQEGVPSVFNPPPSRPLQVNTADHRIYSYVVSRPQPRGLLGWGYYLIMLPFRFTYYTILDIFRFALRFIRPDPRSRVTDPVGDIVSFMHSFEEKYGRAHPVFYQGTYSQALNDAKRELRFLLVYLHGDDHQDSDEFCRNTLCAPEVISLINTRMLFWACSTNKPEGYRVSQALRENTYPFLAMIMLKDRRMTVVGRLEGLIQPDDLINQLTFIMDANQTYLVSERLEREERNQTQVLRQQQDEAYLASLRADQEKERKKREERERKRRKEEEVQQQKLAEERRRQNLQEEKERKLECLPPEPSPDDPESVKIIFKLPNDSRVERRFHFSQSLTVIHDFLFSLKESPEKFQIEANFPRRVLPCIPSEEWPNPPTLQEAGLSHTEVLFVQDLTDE

T5: kinase MAPK3, P27361
T5 chain: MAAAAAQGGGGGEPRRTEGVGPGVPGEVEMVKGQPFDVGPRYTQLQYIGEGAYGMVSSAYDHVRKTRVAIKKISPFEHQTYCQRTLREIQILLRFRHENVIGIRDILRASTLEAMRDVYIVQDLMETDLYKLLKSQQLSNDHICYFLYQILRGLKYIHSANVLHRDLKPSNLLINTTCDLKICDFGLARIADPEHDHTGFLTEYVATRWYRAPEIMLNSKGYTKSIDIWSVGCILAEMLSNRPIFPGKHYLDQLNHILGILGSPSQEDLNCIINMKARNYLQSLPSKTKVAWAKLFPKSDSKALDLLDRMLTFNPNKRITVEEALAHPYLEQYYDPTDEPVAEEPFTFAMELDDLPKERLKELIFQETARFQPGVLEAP


Columns and labels:
β-catenin, P35222 = biological target: T1, β-catenin, P35222
[1] = biological target: T2, UV excision repair protein HHR23A …
CDK4, P11802 = biological target: T3, CDK4, P11802
[2] = biological target: T4, FAS-associated factor UbxD8, Q96CS3
[3] = biological target: protein Arg methyltransferase 5 (PRMT5), O14744
protein Arg methyltransferase 5 (PRMT5), O14744, sequence (O14744 whole entry): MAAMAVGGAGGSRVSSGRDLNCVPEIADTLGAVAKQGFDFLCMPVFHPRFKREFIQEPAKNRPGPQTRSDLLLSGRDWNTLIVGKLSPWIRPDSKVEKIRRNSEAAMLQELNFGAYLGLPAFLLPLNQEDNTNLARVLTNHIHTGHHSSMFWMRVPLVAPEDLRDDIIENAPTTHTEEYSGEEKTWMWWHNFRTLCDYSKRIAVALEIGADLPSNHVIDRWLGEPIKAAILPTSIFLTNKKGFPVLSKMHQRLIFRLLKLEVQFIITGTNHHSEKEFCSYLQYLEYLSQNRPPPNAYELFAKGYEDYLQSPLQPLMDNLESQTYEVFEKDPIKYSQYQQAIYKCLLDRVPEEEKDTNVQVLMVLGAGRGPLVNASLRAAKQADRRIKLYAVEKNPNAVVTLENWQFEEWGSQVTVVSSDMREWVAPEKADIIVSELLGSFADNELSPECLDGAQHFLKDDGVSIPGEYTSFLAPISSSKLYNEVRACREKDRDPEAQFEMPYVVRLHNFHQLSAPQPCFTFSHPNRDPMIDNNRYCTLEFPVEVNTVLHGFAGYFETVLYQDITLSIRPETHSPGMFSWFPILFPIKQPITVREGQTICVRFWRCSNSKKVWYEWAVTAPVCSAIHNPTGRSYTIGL

[4] = biological target: protein arginine methyl transferase PRMT1, Q99873
protein arginine methyl transferase PRMT1, Q99873, sequence (Q99873 whole entry, looked up): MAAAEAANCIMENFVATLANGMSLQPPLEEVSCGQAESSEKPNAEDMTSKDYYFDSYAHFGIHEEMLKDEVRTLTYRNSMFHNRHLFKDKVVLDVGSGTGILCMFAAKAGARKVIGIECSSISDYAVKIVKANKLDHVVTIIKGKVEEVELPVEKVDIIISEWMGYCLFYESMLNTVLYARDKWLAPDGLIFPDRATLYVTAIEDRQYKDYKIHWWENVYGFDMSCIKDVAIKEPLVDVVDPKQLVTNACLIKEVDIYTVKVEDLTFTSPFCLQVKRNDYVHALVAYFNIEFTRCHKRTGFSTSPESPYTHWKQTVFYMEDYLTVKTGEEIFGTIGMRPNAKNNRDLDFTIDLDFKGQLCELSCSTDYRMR

[5] = biological target: phosphatase PPP3CA, Q08209
kinase MAPK3, P27361 = biological target: T5, kinase MAPK3, P27361

p53, P04637, sequence (P04637 whole entry, looked up): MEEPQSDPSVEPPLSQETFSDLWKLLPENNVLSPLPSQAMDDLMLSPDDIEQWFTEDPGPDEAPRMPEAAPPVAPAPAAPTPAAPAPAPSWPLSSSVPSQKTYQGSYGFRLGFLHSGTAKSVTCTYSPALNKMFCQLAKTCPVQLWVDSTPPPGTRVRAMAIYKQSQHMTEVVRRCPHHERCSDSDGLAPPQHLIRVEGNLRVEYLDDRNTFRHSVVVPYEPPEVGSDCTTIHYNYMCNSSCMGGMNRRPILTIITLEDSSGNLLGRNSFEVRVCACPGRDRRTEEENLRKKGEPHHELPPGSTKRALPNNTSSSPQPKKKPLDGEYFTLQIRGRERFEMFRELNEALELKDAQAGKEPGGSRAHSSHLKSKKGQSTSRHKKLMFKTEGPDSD
MAPK1, P28482, sequence (P28482 whole entry): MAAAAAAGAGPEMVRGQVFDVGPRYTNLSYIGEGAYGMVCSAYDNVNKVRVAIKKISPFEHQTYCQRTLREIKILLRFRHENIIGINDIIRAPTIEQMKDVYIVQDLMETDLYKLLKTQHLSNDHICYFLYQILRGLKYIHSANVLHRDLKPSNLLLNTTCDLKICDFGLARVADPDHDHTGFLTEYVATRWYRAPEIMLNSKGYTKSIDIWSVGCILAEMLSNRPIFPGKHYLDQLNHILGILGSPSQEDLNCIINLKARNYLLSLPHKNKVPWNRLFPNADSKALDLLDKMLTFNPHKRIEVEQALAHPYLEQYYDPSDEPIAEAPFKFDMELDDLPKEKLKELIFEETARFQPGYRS
CDK1, P06493, sequence (P06493 whole entry, looked up): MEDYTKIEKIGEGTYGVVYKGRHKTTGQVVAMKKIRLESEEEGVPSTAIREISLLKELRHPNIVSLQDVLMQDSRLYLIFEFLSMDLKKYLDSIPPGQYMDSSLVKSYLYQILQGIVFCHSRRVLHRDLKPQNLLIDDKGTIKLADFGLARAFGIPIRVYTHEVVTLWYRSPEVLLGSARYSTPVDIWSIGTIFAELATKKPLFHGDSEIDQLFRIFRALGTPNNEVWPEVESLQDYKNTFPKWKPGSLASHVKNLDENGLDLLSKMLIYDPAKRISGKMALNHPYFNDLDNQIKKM

Protein	in vitro substrate ubiquitination with wt UB through Uba1-UbcH7-E6AP, Western blot (β-catenin, P35222)	in vitro substrate ubiquitination with wt UB through Uba1-UbcH7-E6AP, Western blot (MAPK1, P28482)	in vitro substrate ubiquitination with wt UB through Uba1-UbcH7-E6AP, Western blot [1]	in vitro substrate ubiquitination with wt UB through Uba1-UbcH7-E6AP, Western blot (CDK4, P11802)	full-length E6AP auto-ubiquitination with wt UB, Western blot (wt UbcH7 (human E2))	in vitro substrate ubiquitination with wt UB through Uba1-UbcH7-E6AP, Western blot [2]	in vitro substrate ubiquitination with wt UB through Uba1-UbcH7-E6AP, Western blot [3]	p53 ubiquitination in the presence of E6, Western blot (p53, P04637)	in vitro substrate ubiquitination with wt UB through Uba1-UbcH7-E6AP, Western blot (CDK1, P06493)	in vitro substrate ubiquitination with wt UB through wt Uba1-UbcH5b-CHIP, Western blot [4]	in vitro substrate ubiquitination with wt UB through wt Uba1-UbcH5b-CHIP, Western blot (β-catenin, P35222)	in vitro substrate ubiquitination with wt UB through wt Uba1-UbcH5b-CHIP, Western blot (CDK4, P11802)	in vitro substrate ubiquitination with wt UB through wt Uba1-UbcH5b-CHIP, Western blot [5]	p53 ubiquitination with wt UB, Western blot (p53, P04637)	in vitro substrate ubiquitination with wt UB through wt Uba1-UbcH5b-CHIP, Western blot (kinase MAPK3, P27361)
wt E6AP (full-length) (protein) MKRAAAKHLIERYYHQLTEGCGNEACTNEFCASCPTFLRMDNNAAAIKALELYKINAKLCDPHPSKKGASSAYLENSKGAPNNSCSEIKMNKKGARIDFKDVTYLTEEKVYEILELCREREDYSPLIRVIGRVFSSAEALVQSFRKVKQHTKEELKSLQAKDEDKDEDEKEKAACSAAAMEEDSEASSSRIGDSSQGDNNLQKLGPDDVSVDIDAIRRVYTRLLSNEKIETAFLNALVYLSPNVECDLTYHNVYSRDPNYLNLFIIVMENRNLHSPEYLEMALPLFCKAMSKLPLAAQGKLIRLWSKYNADQIRRMMETFQQLITYKVISNEFNSRNLVNDDDAIVAASKCLKMVYYANVVGGEVDTNHNEEDDEEPIPESSELTLQELLGEERRNKKGPRVDPLETELGVKTLDCRKPLIPFEEFINEPLNEVLEMDKDYTFFKVETENKFSFMTCPFILNAVTKNLGLYYDNRIRMYSERRITVLYSLVQGQQLNPYLRLKVRRDHIIDDALVRLEMIAMENPADLKKQLYVEFEGEQGVDEGGVSKEFFQLVVEEIFNPDIGMFTYDESTKLFWFNPSSFETEGQFTLIGIVLGLAIYNNCILDVHFPMVVYRKLMGKKGTFRDLGDSHPVLYQSLKDLLEYEGNVEDDMMITFQISQTDLFGNPMMYDLKENGDKIPITNENRKEFVNLYSDYILNKSVEKQFKAFRRGFHMVTNESPLKYLFRPEEIELLICGSRNLDFQALEETTEYDGGYTRDSVLIREFWEIVHSFTDEQKRLFLQFTTGTDRAPVGGLGKLKMIIAKNGPDTERLPTSHTCFNVLLLPEYSSKEKLKERLLKAITYAKGFGML	CDK1, CDK4 and β-catenin were strongly ubiquitinated by E6AP with the formation of high molecular weight bands	MAPK1, PRMTS, and UbxD8 mainly generated species with one or two conjugated UBs	E6AP-catalyzed ubiquitination of HHR23A, a previously identified E6AP substrate, was confirmed	CDK1, CDK4 and β-catenin were strongly ubiquitinated by E6AP with the formation of high molecular weight bands	wt E6AP can be auto-ubiquitinated by the wt Uba1-UbcH7 pair	MAPK1, PRMTS, and UbxD8 mainly generated species with one or two conjugated UBs	MAPK1, PRMTS, and UbxD8 mainly generated species with one or two conjugated UBs	p53 can be efficiently ubiquitinated by wt UB through the wt Uba1-UbcH7-E6AP cascade in the presence of E6	CDK1, CDK4 and β-catenin were strongly ubiquitinated by E6AP with the formation of high molecular weight bands						
wt CHIP (full-length) (protein) MKGKEEKEGGARLGAGGGSPEKSPSAQELKEQGNRLFVGRKYPEAAACYGRAIMQQHEQALADCRRALELDGQSVKAHFFLGQCQLEMESYDEAIANLQRAYSLAKEQRLNFGDDIPSALRIAKKKRWNSIEERRIHQESELHSYLSRLIAAERERELEECQRNHEGDEDDSHVRAQQACIEAKHDKYMADMDELFSQVDEKRKKRDIPDYLCGKISFELMREPCITPSGITYDRKDIEEHLQRVGHFDPVTRSPLTQEQLIPNLAMKEVIDAFISENGWVEDY										CHIP ubiquitination of PRMT1 and PPP3CA generated mono-ubiquitinated species	CHIP could poly-ubiquitinate MAPK3, β-catenin and CDK4	CHIP could poly-ubiquitinate MAPK3, β-catenin and CDK4	CHIP ubiquitination of PRMT1 and PPP3CA generated mono-ubiquitinated species	p53 modification by wt UB going through the wt Uba1-UbcH5b-CHIP cascade	CHIP could poly-ubiquitinate MAPK3, β-catenin and CDK4
